Test results published in the supplement of paper PMC9170038.

Experiments:
[1] = test system: MS2 coat protein; experiment: apparent KD of MS2 coat protein; designed switch direction (-1 OFF switch, 1 ON switch): 1; higher = weaker reporter binding; details: Eterna round: R98
Method: (§1)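 RNA-MaP: designed FMN/MS2 RNA switches (84 nt design region) are transcribed on-chip within common flanks and titrated with SNAP-549-labelled MS2 coat protein (about 1-3000 nM) in 100 mM Tris pH 7.5, 80 mM KCl, 4 mM MgCl2, without or with 200 uM FMN. Median apparent KD per design; activation ratio = KD,OFF / KD,ON.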

[2] = test system: MS2 coat protein; experiment: apparent KD of MS2 coat protein; designed switch direction (-1 OFF switch, 1 ON switch): -1; higher = weaker reporter binding; details: Eterna round: R98
Method: as §1

[3] = test system: MS2 coat protein; experiment: apparent KD of MS2 coat protein; higher = weaker reporter binding; details: Eterna round: R101
Method: as §1

Row | Sequence | apparent KD of MS2 coat protein ([1]; input ligand: FMN 200 uM) [µM] | apparent KD of MS2 coat protein ([1]; input ligand: none) [µM] | apparent KD of MS2 coat protein ([3]; input ligand: FMN 200 uM) [µM] | apparent KD of MS2 coat protein ([3]; input ligand: none) [µM] | further results
1 | AAAACAUGAGGAUCACCCAUGUAUAGAACGGUUAAUAAAAGUGAGGAUAUACUAAAUUUUAUAUAGUAGAAGGCACUGGGUACU [JR_SSNG3_Sub010] | 0.0247 | 0.0171 | – | – | –
2 | AAAACAUGAGGAUCACCCAUGUAUAGAUCGAUUAUUAGGAGUGAGGAUAUGCAAGUUAUAAGGAAGCAGAAGGCACAGGGAAAA [JR_SSNG3_Sub073] | 0.0232 | 0.0239 | – | – | –
3 | AAAAUAAAGGCAGGAUAUACAUGAAUAAAUAAAAUAAUAUAAAAUAAAACAUGAGGAUCACCCAUGUAGAAGGGCCAAAAUAAA [LRO022_Exclusion NG 2] | – | – | – | – | apparent KD of MS2 coat protein ([2]; input ligand: FMN 200 uM): 0.187 µM; apparent KD of MS2 coat protein ([2]; input ligand: none): 0.0833 µM
4 | AAGAUACUUACAGGAUAUAGGGCAGAGGGUGCCCUAGAAGGGUGAACAUGAGGAUCACCCAUGUAUGUAUCUGAUUAGAAGGCA [Lezaraoren] | 0.119 | 0.0732 | – | – | –
5 | ACAGGUCGUGAGAAGGCGGAAAGCACCGUCGAAAGACGGUGCAAUUAAGAUCUUCGAGGAUCACCCGAGGAUAUCACGACCUGA [#SharedSequence - IExNG2: 15] (puzzle (switch architecture): Inverted Exclusion NG 2) | – | – | 0.654 | 0.0751 | –
6 | ACAUACAUUCGAGGAUAUCGGUGAACAAAUUAACGAGAAGGCGAUAUAAUUUUUAAUCUUAUAAACAUGAGGAUCACCCAUGUA [JR_SSNG1_Sub001] | 0.017 | 0.0209 | – | – | –
7 | AGCGGUGCGUGUGUUGUGACACAUGAGGAUCACCCAUGUAGGAAGGAUAUGCAGUUGGGCACGCGGCAGAAGGUCCGACAUGGA [Riuscein] | – | – | – | – | apparent KD of MS2 coat protein ([2]; input ligand: FMN 200 uM): 0.0586 µM; apparent KD of MS2 coat protein ([2]; input ligand: none): 0.529 µM
8 | AGGAGAAAUGUAGGAUAUAUAUAUAUAUAUAGGCAAAGCGUAUAUAUAUAUAUAGAAGGACAUGAGGAUCACCCAUGUUUCCCU [#Lowering the energy 12] (puzzle (switch architecture): Small Loop Exclusion NG 1) | – | – | 0.00942 | 0.0102 | –
9 | AGUGUCAUCGAGAAGGCCUCAAAAUGAGGAUCACCCAUGUUGUAAUAUGGGAGGAUAUCGAUGAUACAGCUACGUUUCGUAGCA [salish99_InSLSSNG1_020 #HINGE] (puzzle (switch architecture): Inverted Small Loop Same State NG 1) | – | – | 0.0589 | 0.0983 | –
10 | CAGUCGACCAUAACAAGGUCGACUGACUUCUGAGGAUCACCCAGAAGGCGUCACCUAAUAGGUGACGAGGAUAUGGAGUGUAAA [#SharedSequence IExNG# - 7] (puzzle (switch architecture): Inverted Exclusion NG 3) | – | – | 0.0927 | 0.032 | –
11 | CAUAUAUGGUGAGGAUAUGCAAAGGAUCACCUUGUAGAAGGCAUCAGGGUAGAAGGUGCAAGGAUCACCUGUAAGGAUAUAUCC [pwkr2 ssNG1 DX.26] | 0.412 | 1.63 | – | – | –
12 | CCCUUUAGAAAAGGGACAUGAGGAUCACCCAUGUAGGCUGCACAGGAUAUCGAUCGGAGGCGGUACGAGAAGGGUGACGUCAUU [Zaarqu] | 0.064 | 0.0523 | – | – | –
13 | CCUGCACUUCAAGGAUAUCCAGUCGUUUCGACUGGAGAAGGUGAGGAUCACCCAUCUAGCCUGACGUUUGUCAGGCAUGCAGGU [#AddUracilToBrourdLoops 7 - Jieux - Exclusion NG1] (puzzle (switch architecture): Exclusion NG 1) | – | – | 0.0817 | 0.0843 | –
14 | CGCGAACAGUUUUAAAAGAGGAUCACCCAUGUGGACUCAUGGUAGGAUAUCGGGAAGGAGGAAACCGAGAAGGGCUGGUGAGCC [salish99_SSNG3_019 #HINGE] (puzzle (switch architecture): Same State NG 3) | – | – | 0.018 | 0.0375 | –
15 | CGCUAUGAUGGGUGUAAUAGAGCAUAGGAUAUGCUUGUACAUGAGGAUCACCCAUGUUAUAUUUUGCAGAAGGGUGCAUUUGCG [JR #DistanceFar #Hairpin #NP SLSSNG3 Sub072] (puzzle (switch architecture): Small Loop Same State NG 3) | – | – | 0.255 | 0.46 | –
16 | CUUACUUUGUAGAAGGGUGACAUGAGGAUCACCCAUGUGCGUCGCCUGAAAGACCAGGGUACGCCACAGGAUAUACAAAGUAAG [Titerexe] (puzzle (switch architecture): Inverted Same State NG 2) | – | – | 0.128 | 0.0284 | –
17 | GAUUACUUCACAGGAUAUAAAAUAAAGCAGAUUUUAGAAGGGUGAGCCUCGUCGACCGCGACAUGAGGAUCACCCAUGUUGUGU [Bitetiqu] | 0.0508 | 0.0293 | – | – | –

Row | Sequence | apparent KD of MS2 coat protein ([1]; input ligand: FMN 200 uM) [µM] | apparent KD of MS2 coat protein ([1]; input ligand: none) [µM] | apparent KD of MS2 coat protein ([3]; input ligand: FMN 200 uM) [µM] | apparent KD of MS2 coat protein ([3]; input ligand: none) [µM] | further results
18 | GCAGCUAAUGCAGGAUAUCAGCACGUGUAGUGCUGAGAAGGGCACAUGAGGAUACCGACUGUGAUCAAUUAAUAUUAAUGCUGC [salish99#hingeEx3_55-58_003] (puzzle (switch architecture): Exclusion NG 1) | – | – | 0.00687 | 0.00943 | –
19 | GCAGCUAAUGCAGGAUAUCAGCACGUGUAGUGCUGAGAAGGGCACAUGAGGAUACUGACUGUGAUCAAUUAAUAUUAAUGCUGC [salish99#hingeEx3_55-58_004] (puzzle (switch architecture): Exclusion NG 1) | – | – | 0.00919 | 0.0635 | –
20 | GCGGAGGGCACAGGAUAUCGUCCUUAGUUGGUACGAGAAGGGUGGCGCUGCCACAUGAGGAUCACCCAUGUGCCCAAACUAUAG [Eresgeises] | 0.639 | 0.211 | – | – | –
21 | GCGGCCCGGGAGAAGGACAUGAGGAUCACCCAUGUCGCCGGGCCCGGGAAACCGGGCCCGGCCAUGUAGGAUAUCCCGGGCCGC [#This is a good prank] (puzzle (switch architecture): Inverted Exclusion NG 2) | – | – | 0.00514 | 0.00459 | –
22 | GCGUGUGGAUCAGGAUAUUACAUGAGGAUCACCCAUGUAGGCAUGAGGGUCACCCGUGUUGUGUGUAAGAAGGGAUCGCCCGUG [Exclusion2] | – | – | – | – | apparent KD of MS2 coat protein ([2]; input ligand: FMN 200 uM): 0.0741 µM; apparent KD of MS2 coat protein ([2]; input ligand: none): 0.046 µM
23 | GCUGCUAUCGCAGGAUAUUACAUGGGAAAGAAUACAUGAGGAUCACCCAUGUAAAAGAUCGUAAAUAAGAAGGGCGAUAGCAGC [Lame State 5 - Jieux - Same State NG 2] | 0.353 | 0.329 | – | – | –
24 | GCUUGCGACGCAGGAUAUGGGUGCCUAAACACGAGGAUCACCCGUGUACAGGAAGCGAAAAGCUCUCAGAAGGGCGUCGCAGGC [United States 8 - Jieux - Same State NG 2] | 0.0172 | 0.0226 | – | – | –
25 | GGACUCACUUGAGGAUAUCGAGUGGAAUACACUCGAGAAGGCAGGGAAACCUGAGGAUCACCCAGGUAAGAGUCCAAUAAUAAA [Same State NG1 - A3C, U17G Submission 2C] | 0.0187 | 0.0434 | – | – | –
26 | GGACUCACUUGAGGAUAUCGAGUGGAUAACACUCGAGAAGGCAGGAAAACCUGAGGAUCACCCAGGUAAGAGUCCAAUAAUAAU [Same State NG1 - A3C, U17G Submission 3D] | 0.0144 | 0.0132 | – | – | –
27 | GGAUCCAUCACAGGAUAUGCUGGACUUUGUCCAGCAGAAGGGUGAAACAUGAGGAUCACCCAUGUAAAGGAUCCUAUAUUUAAU [Denovo 26] | 0.0343 | 0.291 | – | – | –
28 | GUAGCAUACCGAGGAUAUUCAUAUAAUAAAUAAACAUGAGGACCACCCAUGUGGCGAAAGCCUUGGGAGAAGGCGGAAUGCUAC [Xeonanis 20 - mod55 1] | 0.0709 | – | – | – | –
29 | GUAGCUAUCGCAGGAUAUCCUCAGGCGAAAGCCACAUGAGGAUCACCCAUGUAAUUAAAGAAAUUGGAGAAGGGCGAUAGCUAC [jl-sng2-2.38 Eli mod] | 0.0364 | 0.571 | – | – | –
30 | GUAGCUAUCGGAGGAUAUUCAUAGCGGAAACGCACAUGAGGAUCACCCAUGUGGCGAAAGCCUUGGGAGAAGGCCGAUAGCUAC [jl-sng2-2.30 Eli mod] | 0.0177 | 0.0993 | – | – | –
31 | UGUAAUAUUAUAGGAUAUGGAUACGAUACGUAUCCAGAAGGGUGAUUAAACUAUAAUCUAUACAUGAGGAUCACCCAUGUUUAU [AtrosYaY10] (puzzle (switch architecture): Same State NG 1) | – | – | 0.157 | 0.173 | –
32 | UUCACGGCGGGAAUAAGUGGUACUCAGGAUAUGGACUAGAAAUACAUGAGGAUCACCCAUGUGUUCCAGAAGGGAGGGCAUGCG [Tisorabea] (puzzle (switch architecture): Small Loop Same State NG 3) | – | – | 0.0103 | 0.0456 | –
33 | UUGAAUCGAAACAUGAGGAUCACCCAUGUGUUGUAAUUGACAUAGGAUAUGUAUAUACUUUUAUAAUAGAAGGAUGACGAUACU [S-state NG3 31] (puzzle (switch architecture): Same State NG 3) | – | – | 0.012 | 0.0158 | –
